Source: PMC10216065 (Biomolecules, 2023)

B1: Mycobacterium tuberculosis SufS (Rv1464) (enzyme)
chain: GMTASVNSLDLAAIRADFPILKRIMRGGNPLAYLDSGATSQRPLQVLDAEREFLTASNGAVHRGAHQLMEEATDAYEQGRADIALFVGADTDELVFTKNATEALNLVSYVLGDSRFERAVGPGDVIVTTELEHHANLIPWQELARRTGATLRWYGVTDDGRIDLDSLYLDDRVKVVAFTHHSNVTGVLTPVSELVSRAHQSGALTVLDACQSVPHQPVDLHELGVDFAAFSGHKMLGPNGIGVLYGRRELLAQMPPFLTGGSMIETVTMEGATYAPAPQRFEAGTPMTSQVVGLAAAARYLGAIGMAAVEAHERELVAAAIEGLSGIDGVRILGPTSMRDRGSPVAFVVEGVHAHDVGQVLDDGGVAVRVGHHCALPLHRRFGLAATARASFAVYNTADEVDRLVAGVRRSRHFFGRA

Assays:
SEC-MALS = biological target: the molecule itself; experiment: SEC-MALS
[1] = biological target: B1; experiment: crystal structure; conditions: both partners purified

## B1
SEC-MALS
  stoichiometry N: 2

B2: Mycobacterium tuberculosis SufU (Rv1465), tag state not told (natural protein)
chain: GSHMVTLRLEQIYQDVILDHYKHPQHRGLREPFGAQVYHVNPICGDEVTLRVALSEDGTRVTDVSYDGQGCSISQAATSVLTEQVIGQRVPRALNIVDAFTEMVSSRGTVPGDEDVLGDGVAFAGVAKYPARVKCALLGWMAFKDALAQASEAFEEVTDERNQRTG
[1]
  binding result: binds
